From patent US20180355053A1 (published 2018) come the findings set out here.

The assay deals with CD47-His (UniProt Q08722 19-139). The experiment in a line: SPR (Biacore). A general note: SPR reads the build-up and loss of mass on a sensor chip optically.
Sequence of CD47-His (Q08722 19-139): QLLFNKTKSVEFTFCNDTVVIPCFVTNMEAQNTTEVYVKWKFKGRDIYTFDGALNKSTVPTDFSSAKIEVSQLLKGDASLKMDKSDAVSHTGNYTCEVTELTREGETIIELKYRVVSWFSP

B1: CD20-4GL-SIRPα (bispecific antibody)
heavy: not shown
light: QIVLSQSPAILSASPGEKVTMTCRASSSVSYIHWFQQKPGSSPKPWIYATSNLASGVPVRFSGSGSGTSYSLTISRVEAEDAATYYCQQWTSNPPTFGGGTKLEIKRTVAAPSVFIFPPSDEQLKSGTASVVCLLNNFYPREAKVQWKVDNALQSGNSQESVTEQDSKDSTYSLSSTLTLSKADYEKHKVYACEVTHQGLSSPVTKSFNRGEC
For the molecule B1, the Kd is 15.9 nM.

B2: CD20-2GL-SIRPα (bispecific antibody)
heavy: not shown
light: QIVLSQSPAILSASPGEKVTMTCRASSSVSYIHWFQQKPGSSPKPWIYATSNLASGVPVRFSGSGSGTSYSLTISRVEAEDAATYYCQQWTSNPPTFGGGTKLEIKRTVAAPSVFIFPPSDEQLKSGTASVVCLLNNFYPREAKVQWKVDNALQSGNSQESVTEQDSKDSTYSLSSTLTLSKADYEKHKVYACEVTHQGLSSPVTKSFNRGEC
Molecule B2 had a Kd of 21.4 nM.

B3: SIRPα-CD20 (bispecific antibody)
heavy: not shown
light: QIVLSQSPAILSASPGEKVTMTCRASSSVSYIHWFQQKPGSSPKPWIYATSNLASGVPVRFSGSGSGTSYSLTISRVEAEDAATYYCQQWTSNPPTFGGGTKLEIKRTVAAPSVFIFPPSDEQLKSGTASVVCLLNNFYPREAKVQWKVDNALQSGNSQESVTEQDSKDSTYSLSSTLTLSKADYEKHKVYACEVTHQGLSSPVTKSFNRGEC
The molecule B3 had a Kd of 6.39 nM.

As usually defined, the Kd is the constant that tells how readily two partners part at equilibrium. A higher Kd goes with weaker binding.
